{"source": "paper PMC7672431", "about": "“NMR structure of a vestigial nuclease provides insight into the evolution of functional transitions in viral dsDNA packaging motors” (Nucleic Acids Research, 2020)", "molecules": {"B1": {"name": "phi29 DNA packaging ATPase gp16, full length, assembled as a pentameric ring in the packaging motor on procapsids, P11014 1-332 (enzyme)", "chain": "MDKSLFYNPQKMLSYDRILNFVIGARGIGKSYAMKVYPINRFIKYGEQFIYVRRYKPELAKVSNYFNDVAQEFPDHELVVKGRRFYIDGKLAGWAIPLSVWQSEKSNAYPNVSTIVFDEFIREKDNSNYIPNEVSALLNLMDTVFRNRERVRCICLSNAVSVVNPYFLFFNLVPDVNKRFNVYDDALIEIPDSLDFSSERRKTRFGRLIDGTEYGEMSLDNQFIGDSQVFIEKRSKDSKFVFSIVYNGFTLGVWVDVNQGLMYIDTAHDPSTKNVYTLTTDDLNENMMLITNYKNNYHLRKLASAFMNGYLRFDNQVIRNIAYELFRKMRIQ"}, "B2": {"name": "phi29 gp16 CTD-L (residues 208–332; inter-domain linker and C-terminal domain of the packaging ATPase) (domain or fragment, bacteriophage phi29, UniProt P11014 208-332, looked up)", "chain": "LIDGTEYGEMSLDNQFIGDSQVFIEKRSKDSKFVFSIVYNGFTLGVWVDVNQGLMYIDTAHDPSTKNVYTLTTDDLNENMMLITNYKNNYHLRKLASAFMNGYLRFDNQVIRNIAYELFRKMRIQ", "notes": "DNA packaging ATPase gp16 of bacteriophage phi29 (332 amino acids), residues 208-332: inter-domain linker plus C-terminal domain; Cloned between NdeI and XhoI of pET30a, which would add a C-terminal His6 tag (surmised); Isotope-labelled for the NMR experiments; also called gp16 CTD-L (208–332); source: E. coli BL21(DE3), pET30a, purified (Talon resin, HiTrap Q HP)"}, "B3": {"name": "pRNA A-helix mimic, 3'-fluorescein (structured_RNA)", "RNA": "UCAAUGGUACGGUACUUCCAUUGUCAUGUUUUUCAUGGCAAAAGUGCACGCUACUUUGAU"}, "B4": {"name": "22 bp dsDNA, 3'-fluorescein (dsDNA)", "DNA 1": "GGTATCATGTGAGGGTGGGGGC", "DNA 2": "GCCCCCACCCTCACATGATACC"}}, "key": {"[1]": {"molecular_target": "phi29 gp16 CTD (residues 223–332; C-terminal domain of the packaging ATPase) (bacteriophage phi29) (UniProt P11014)", "experiment": "AUC; sedimentation velocity, 42 000 rpm, 30°C, c(s) distribution in SEDFIT; CTD-L at 25 and 55 μM, CTD at 30 and 85 μM"}, "[2]": {"molecular_target": "T1, phi29 DNA packaging ATPase gp16, full length, assembled as a pentameric ring in the packaging motor on procapsids (bacteriophage phi29), P11014", "T1 chain": "B1 chain", "experiment": "cryo-EM structure; NMR structure of the CTD fitted into a ∼5.2 Å cryoEM map of phi29 particles stalled during packaging with γ-S-ATP (map of ref. 25; CTD density 5-fold averaged)", "settings": "remark: other sources report otherwise"}, "[3]": {"molecular_target": "the molecule itself", "experiment": "AUC; sedimentation velocity, 42 000 rpm, 30°C, c(s) distribution in SEDFIT; CTD-L at 25 and 55 μM, CTD at 30 and 85 μM"}, "[4]": {"molecular_target": "T2, gp16 CTD (C-terminal domain of DNA packaging ATPase) (bacteriophage phi29, UniProt P11014 223-332)", "T2 sequence": "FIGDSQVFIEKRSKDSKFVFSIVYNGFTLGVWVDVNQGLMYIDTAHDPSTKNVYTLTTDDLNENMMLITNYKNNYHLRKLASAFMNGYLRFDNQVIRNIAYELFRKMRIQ", "experiment": "fluorescence intensity titration; Fluorescence: 50 mM sodium phosphate pH 6.5, 200 mM NaCl, temperature not stated; NMR: same buffer plus 0.02% NaN3, 2 mM DSS, ~100 uM protein, 303 K", "settings": "protein: recombinant, tags: His tag implied (pET30a NdeI/XhoI, Talon resin)"}}, "data": [{"molecule": "phi29 gp16 CTD (residues 223–332; C-terminal domain of the packaging ATPase) (from UniProt P11014 223-332) (domain or fragment)", "values": [{"measurement": "percent dimers at 30 and 85 μM", "setting": "[1]", "result": 2, "unit": "%"}]}, {"molecule": "B1", "values": [{"measurement": "stoichiometry N", "setting": "[2]", "result": 5}]}, {"molecule": "B2", "values": [{"measurement": "stoichiometry N", "setting": "[3]", "result": 2}]}, {"molecule": "B3", "values": [{"measurement": "Kd", "setting": "[4]; label: 3' fluorescein (36FAM), hairpin", "result": 3.2, "unit": "µM"}]}, {"molecule": "B4", "values": [{"measurement": "Kd", "setting": "[4]; label: 3' fluorescein (36FAM) on strand 1, blunt", "result": 3.1, "unit": "µM"}]}]}
